Measured values: patent publication US20210246166A1 (Bayer, published 2021)
Numbered stars: 1 amine (or outer) side, 2 acyl side, 3 side chain; on linkers, the order of the positions; unused ones are H or OH. Bridge positions count the residues as written; N and C are the ends. Square brackets hold non-standard residues; d marks the D form. Ends that are not written are not given here. NH(CH2CH2O)5CH2CO = O=C(COCCOCCOCCOCCOCCN[*:1])[*:2]; Pro(3S,4R-methano) = O=C(O)[C@H]1NC[C@@H]2C[C@@H]21; Phe(3-COOH) = N[C@@H](Cc1cccc(C(=O)O)c1)C(=O)O; Oic = O=C(O)[C@@H]1C[C@@H]2CCCC[C@@H]2N1; tBuAla = CC(C)(C)C[C@H](N)C(=O)O; Cba = N[C@@H](CC1CCC1)C(=O)O; Pen = CC(C)(S)[C@H](N)C(=O)O; NMeC = CN[C@@H](CS)C(=O)O; PEG3 = NCCOCCOCCOCCC(=O)O; Orn = NCCC[C@H](N)C(=O)O; PEG2 = NCCOCCOCCC(=O)O; Sar = CNCC(=O)O

T1: recombinant human MASP1 active protease (amino acids 297-699, C-terminal His Tag) (human, UniProt P48740 297-699)
T1 sequence: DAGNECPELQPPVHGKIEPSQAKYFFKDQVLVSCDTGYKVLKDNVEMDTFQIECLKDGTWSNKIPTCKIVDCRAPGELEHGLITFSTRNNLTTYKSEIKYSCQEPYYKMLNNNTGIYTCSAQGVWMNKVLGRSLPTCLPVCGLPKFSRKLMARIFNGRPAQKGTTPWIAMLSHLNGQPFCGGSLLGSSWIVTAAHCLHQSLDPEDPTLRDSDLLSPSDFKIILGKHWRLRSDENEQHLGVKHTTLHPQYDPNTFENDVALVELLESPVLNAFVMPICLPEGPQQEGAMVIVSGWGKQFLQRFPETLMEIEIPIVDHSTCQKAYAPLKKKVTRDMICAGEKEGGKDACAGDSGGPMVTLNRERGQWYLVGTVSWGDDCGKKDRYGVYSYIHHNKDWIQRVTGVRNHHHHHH

B1: (Orn)-IC+SRSLP-(Oic)-I-(Pen)+IPD-NH2 (peptide)
peptide: [Orn]ICSRSLP[Oic]I[Pen]IPD-NH2
modifications: disulfide 3-11; N-terminus assumed
SMILES: CC[C@H](C)[C@H](NC(=O)[C@@H](N)CCCN)C(=O)N[C@H]1CSSC(C)(C)[C@@H](C(=O)N[C@H](C(=O)N2CCC[C@H]2C(=O)N[C@@H](CC(=O)O)C(N)=O)[C@@H](C)CC)NC(=O)[C@H]([C@@H](C)CC)NC(=O)[C@@H]2C[C@@H]3CCCC[C@@H]3N2C(=O)[C@@H]2CCCN2C(=O)[C@H](CC(C)C)NC(=O)[C@H](CO)NC(=O)[C@H](CCCNC(=N)N)NC(=O)[C@H](CO)NC1=O
B2: A-(Cba)-C+SRS-((tBu)A)-PPI-(Pen)+IPD-NH2 (peptide)
peptide: A[Cba]CSRS[tBuAla]PPI[Pen]IPD-NH2
modifications: disulfide 3-11; N-terminus assumed
SMILES: CC[C@H](C)[C@@H]1NC(=O)[C@@H]2CCCN2C(=O)[C@@H]2CCCN2C(=O)[C@H](CC(C)(C)C)NC(=O)[C@H](CO)NC(=O)[C@H](CCCNC(=N)N)NC(=O)[C@H](CO)NC(=O)[C@@H](NC(=O)[C@H](CC2CCC2)NC(=O)[C@H](C)N)CSSC(C)(C)[C@@H](C(=O)N[C@H](C(=O)N2CCC[C@H]2C(=O)N[C@@H](CC(=O)O)C(N)=O)[C@@H](C)CC)NC1=O
B3: TIC+SRS-((tBu)A)-PPI-((N-Me)C)+I-NH2 (peptide)
peptide: TICSRS[tBuAla]PPI[NMeC]I-NH2
modifications: disulfide 3-11; N-terminus assumed
SMILES: CC[C@H](C)[C@H](NC(=O)[C@@H]1CSSC[C@H](NC(=O)[C@@H](NC(=O)[C@@H](N)[C@@H](C)O)[C@@H](C)CC)C(=O)N[C@@H](CO)C(=O)N[C@@H](CCCNC(=N)N)C(=O)N[C@@H](CO)C(=O)N[C@@H](CC(C)(C)C)C(=O)N2CCC[C@H]2C(=O)N2CCC[C@H]2C(=O)N[C@@H]([C@@H](C)CC)C(=O)N1C)C(N)=O
B4: VIC+SRS-((tBu)A)-PPI-(Pen)+IPD-NH2 (peptide)
peptide: VICSRS[tBuAla]PPI[Pen]IPD-NH2
modifications: disulfide 3-11; N-terminus assumed
SMILES: CC[C@H](C)[C@H](NC(=O)[C@@H](N)C(C)C)C(=O)N[C@H]1CSSC(C)(C)[C@@H](C(=O)N[C@H](C(=O)N2CCC[C@H]2C(=O)N[C@@H](CC(=O)O)C(N)=O)[C@@H](C)CC)NC(=O)[C@H]([C@@H](C)CC)NC(=O)[C@@H]2CCCN2C(=O)[C@@H]2CCCN2C(=O)[C@H](CC(C)(C)C)NC(=O)[C@H](CO)NC(=O)[C@H](CCCNC(=N)N)NC(=O)[C@H](CO)NC1=O
B5: ((N-Me)G)-IC+SRS-((tBu)A)-PPI-(Pen)+IP-(PEG5-CH2CO2H (18 atoms))-NH2 (peptide)
peptide: [Sar]ICSRS[tBuAla]PPI[Pen]IP[NH(CH2CH2O)5CH2CO]-NH2
modifications: disulfide 3-11; N-terminus assumed
SMILES: CC[C@H](C)[C@H](NC(=O)CNC)C(=O)N[C@H]1CSSC(C)(C)[C@@H](C(=O)N[C@H](C(=O)N2CCC[C@H]2C(=O)NCCOCCOCCOCCOCCOCC(N)=O)[C@@H](C)CC)NC(=O)[C@H]([C@@H](C)CC)NC(=O)[C@@H]2CCCN2C(=O)[C@@H]2CCCN2C(=O)[C@H](CC(C)(C)C)NC(=O)[C@H](CO)NC(=O)[C@H](CCCNC(=N)N)NC(=O)[C@H](CO)NC1=O
B6: ((N-Me)G)-IC+SRS-((tBu)A)-PPI-(Pen)+IPD-(Orn)-(Orn)-(Orn)-NH2 (peptide)
peptide: [Sar]ICSRS[tBuAla]PPI[Pen]IPD[Orn][Orn][Orn]-NH2
modifications: disulfide 3-11; N-terminus assumed
SMILES: CC[C@H](C)[C@H](NC(=O)CNC)C(=O)N[C@H]1CSSC(C)(C)[C@@H](C(=O)N[C@H](C(=O)N2CCC[C@H]2C(=O)N[C@@H](CC(=O)O)C(=O)N[C@@H](CCCN)C(=O)N[C@@H](CCCN)C(=O)N[C@@H](CCCN)C(N)=O)[C@@H](C)CC)NC(=O)[C@H]([C@@H](C)CC)NC(=O)[C@@H]2CCCN2C(=O)[C@@H]2CCCN2C(=O)[C@H](CC(C)(C)C)NC(=O)[C@H](CO)NC(=O)[C@H](CCCNC(=N)N)NC(=O)[C@H](CO)NC1=O
B7: ((N-Me)G)-IC+SRS-((tBu)A)-PPI-(Pen)+IP-((N-Me)G)-((N-Me)G)-((N-Me)G)-NH2 (peptide)
peptide: [Sar]ICSRS[tBuAla]PPI[Pen]IP[Sar][Sar][Sar]-NH2
modifications: disulfide 3-11; N-terminus assumed
SMILES: CC[C@H](C)[C@H](NC(=O)CNC)C(=O)N[C@H]1CSSC(C)(C)[C@@H](C(=O)N[C@H](C(=O)N2CCC[C@H]2C(=O)N(C)CC(=O)N(C)CC(=O)N(C)CC(N)=O)[C@@H](C)CC)NC(=O)[C@H]([C@@H](C)CC)NC(=O)[C@@H]2CCCN2C(=O)[C@@H]2CCCN2C(=O)[C@H](CC(C)(C)C)NC(=O)[C@H](CO)NC(=O)[C@H](CCCNC(=N)N)NC(=O)[C@H](CO)NC1=O
B8: ((N-Me)G)-IC+SRS-((tBu)A)-PPI-(Pen)+IP-((3-Carboxy)F)-NH2 (peptide)
peptide: [Sar]ICSRS[tBuAla]PPI[Pen]IP[Phe(3-COOH)]-NH2
modifications: disulfide 3-11; N-terminus assumed
SMILES: CC[C@H](C)[C@H](NC(=O)CNC)C(=O)N[C@H]1CSSC(C)(C)[C@@H](C(=O)N[C@H](C(=O)N2CCC[C@H]2C(=O)N[C@@H](Cc2cccc(C(=O)O)c2)C(N)=O)[C@@H](C)CC)NC(=O)[C@H]([C@@H](C)CC)NC(=O)[C@@H]2CCCN2C(=O)[C@@H]2CCCN2C(=O)[C@H](CC(C)(C)C)NC(=O)[C@H](CO)NC(=O)[C@H](CCCNC(=N)N)NC(=O)[C@H](CO)NC1=O
B9: IIC+SRS-((tBu)A)-PPI-(Pen)+IPD-NH2 (peptide)
peptide: IICSRS[tBuAla]PPI[Pen]IPD-NH2
modifications: disulfide 3-11; N-terminus assumed
SMILES: CC[C@H](C)[C@H](N)C(=O)N[C@H](C(=O)N[C@H]1CSSC(C)(C)[C@@H](C(=O)N[C@H](C(=O)N2CCC[C@H]2C(=O)N[C@@H](CC(=O)O)C(N)=O)[C@@H](C)CC)NC(=O)[C@H]([C@@H](C)CC)NC(=O)[C@@H]2CCCN2C(=O)[C@@H]2CCCN2C(=O)[C@H](CC(C)(C)C)NC(=O)[C@H](CO)NC(=O)[C@H](CCCNC(=N)N)NC(=O)[C@H](CO)NC1=O)[C@@H](C)CC
B10: AIC+SRSLP-(Oic)-I-(Pen)+I-NH2 (peptide)
peptide: AICSRSLP[Oic]I[Pen]I-NH2
modifications: disulfide 3-11; N-terminus assumed
SMILES: CC[C@H](C)[C@H](NC(=O)[C@H]1NC(=O)[C@H]([C@@H](C)CC)NC(=O)[C@@H]2C[C@@H]3CCCC[C@@H]3N2C(=O)[C@@H]2CCCN2C(=O)[C@H](CC(C)C)NC(=O)[C@H](CO)NC(=O)[C@H](CCCNC(=N)N)NC(=O)[C@H](CO)NC(=O)[C@@H](NC(=O)[C@@H](NC(=O)[C@H](C)N)[C@@H](C)CC)CSSC1(C)C)C(N)=O
B11: ((N-Me)G)-IC+SRSLP-(Oic)-I-(Pen)+IPD-(PEG2(13 atoms))-NH2 (peptide)
peptide: [Sar]ICSRSLP[Oic]I[Pen]IPD[PEG3]-NH2
modifications: disulfide 3-11; N-terminus assumed
SMILES: CC[C@H](C)[C@H](NC(=O)CNC)C(=O)N[C@H]1CSSC(C)(C)[C@@H](C(=O)N[C@H](C(=O)N2CCC[C@H]2C(=O)N[C@@H](CC(=O)O)C(=O)NCCOCCOCCOCCC(N)=O)[C@@H](C)CC)NC(=O)[C@H]([C@@H](C)CC)NC(=O)[C@@H]2C[C@@H]3CCCC[C@@H]3N2C(=O)[C@@H]2CCCN2C(=O)[C@H](CC(C)C)NC(=O)[C@H](CO)NC(=O)[C@H](CCCNC(=N)N)NC(=O)[C@H](CO)NC1=O
B12: ((N-Me)G)-IC+SRSLP-(Oic)-I-(Pen)+IPD-(PEG1(10 atoms))-NH2 (peptide)
peptide: [Sar]ICSRSLP[Oic]I[Pen]IPD[PEG2]-NH2
modifications: disulfide 3-11; N-terminus assumed
SMILES: CC[C@H](C)[C@H](NC(=O)CNC)C(=O)N[C@H]1CSSC(C)(C)[C@@H](C(=O)N[C@H](C(=O)N2CCC[C@H]2C(=O)N[C@@H](CC(=O)O)C(=O)NCCOCCOCCC(N)=O)[C@@H](C)CC)NC(=O)[C@H]([C@@H](C)CC)NC(=O)[C@@H]2C[C@@H]3CCCC[C@@H]3N2C(=O)[C@@H]2CCCN2C(=O)[C@H](CC(C)C)NC(=O)[C@H](CO)NC(=O)[C@H](CCCNC(=N)N)NC(=O)[C@H](CO)NC1=O
B13: ((N-Me)G)-IC+SRSL-((1S,2S,5R)-3-azabicyclo[3.1.0]hexane-2-carboxylic acid)-PI-(Pen)+IP-NH2 (peptide)
peptide: [Sar]ICSRSL[Pro(3S,4R-methano)]PI[Pen]IP-NH2
modifications: disulfide 3-11; N-terminus assumed
SMILES: CC[C@H](C)[C@H](NC(=O)CNC)C(=O)N[C@H]1CSSC(C)(C)[C@@H](C(=O)N[C@H](C(=O)N2CCC[C@H]2C(N)=O)[C@@H](C)CC)NC(=O)[C@H]([C@@H](C)CC)NC(=O)[C@@H]2CCCN2C(=O)[C@@H]2[C@H]3C[C@H]3CN2C(=O)[C@H](CC(C)C)NC(=O)[C@H](CO)NC(=O)[C@H](CCCNC(=N)N)NC(=O)[C@H](CO)NC1=O
B14: LIC+SRS-((tBu)A)-PPI-((N-Me)C)+I-NH2 (peptide)
peptide: LICSRS[tBuAla]PPI[NMeC]I-NH2
modifications: disulfide 3-11; N-terminus assumed
SMILES: CC[C@H](C)[C@H](NC(=O)[C@@H]1CSSC[C@H](NC(=O)[C@@H](NC(=O)[C@@H](N)CC(C)C)[C@@H](C)CC)C(=O)N[C@@H](CO)C(=O)N[C@@H](CCCNC(=N)N)C(=O)N[C@@H](CO)C(=O)N[C@@H](CC(C)(C)C)C(=O)N2CCC[C@H]2C(=O)N2CCC[C@H]2C(=O)N[C@@H]([C@@H](C)CC)C(=O)N1C)C(N)=O

How the values were obtained:
[1] = target: T1, recombinant human MASP1 active protease …; assay: cell-based or functional assay
[2] = target: recombinant human MASP2 active protease (amino acids 297-686, C-terminal His Tag) (human, UniProt O00187 297-686); assay: cell-based or functional assay
Sequence of recombinant human MASP2 active protease (amino acids 297-686, C-terminal His Tag) (O00187 other isoform, or with tags, fused parts or gaps limits assumed): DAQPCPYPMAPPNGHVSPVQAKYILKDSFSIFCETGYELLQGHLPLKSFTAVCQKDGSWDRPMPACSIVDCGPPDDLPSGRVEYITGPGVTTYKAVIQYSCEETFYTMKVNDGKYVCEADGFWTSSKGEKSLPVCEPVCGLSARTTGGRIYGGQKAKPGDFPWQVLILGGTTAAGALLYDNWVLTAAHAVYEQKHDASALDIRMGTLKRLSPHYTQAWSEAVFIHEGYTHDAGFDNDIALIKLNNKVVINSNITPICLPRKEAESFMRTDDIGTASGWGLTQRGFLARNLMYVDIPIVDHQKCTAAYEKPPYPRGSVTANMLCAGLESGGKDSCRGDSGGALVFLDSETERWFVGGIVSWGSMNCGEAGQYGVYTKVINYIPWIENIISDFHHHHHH

| Binder | human MASP1 IC50 [1] | human MASP2 IC50 [2] |
| --- | --- | --- |
| B1 | 0.002 µM | 0.076 µM |
| B2 | 0.002 µM | 0.024 µM |
| B3 | 0.002 µM | 0.08 µM |
| B4 | 0.002 µM | 0.073 µM |
| B5 | 0.002 µM | 0.042 µM |
| B6 | 0.002 µM | 0.13 µM |
| B7 | 0.002 µM | 0.047 µM |
| B8 | 0.002 µM | 0.042 µM |
| B9 | 0.0021 µM | 0.072 µM |
| B10 | 0.0021 µM | 0.098 µM |
| B11 | 0.0021 µM | 0.096 µM |
| B12 | 0.00093 µM | 0.068 µM |
| B13 | 0.0021 µM | 0.02 µM |
| B14 | 0.0022 µM | 0.098 µM |
